Measurements reported in patent US20080242608.

Molecular target: T1, GST-FOXO3 peptide P2 (amino acids 154-259), O43524
T1 chain: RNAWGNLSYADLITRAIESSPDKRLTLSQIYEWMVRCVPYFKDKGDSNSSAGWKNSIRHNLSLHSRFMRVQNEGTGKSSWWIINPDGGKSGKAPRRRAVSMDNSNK

B1: FLAG-MST1 (protein)
chain: METVQLRNPPRRQLKKLDEDSLTKQPEEVFDVLEKLGEGSYGSVYKAIHKETGQIVAIKQVPVESDLQEIIKEISIMQQCDSPHVVKYYGSYFKNTDLWIVMEYCGAGSVSDIIRLRNKTLTEDEIATILQSTLKGLEYLHFMRKIHRDIKAGNILLNTEGHAKLADFGVAGQLTDTMAKRNTVIGTPFWMAPEVIQEIGYNCVADIWSLGITAIEMAEGKPPYADIHPMRAIFMIPTNPPPTFRKPELWSDNFTDFVKQCLVKSPEQRATATQLLQHPFVRSAKGVSILRDLINEAMDVKLKRQESQQREVDQDDEENSEEDEMDSGTMVRAVGDEMGTVRVASTMTDGANTMIEHDDTLPSQLGTMVINAEDEEEEGTMKRRDETMQPAKPSFLEYFEQKEKENQINSFGKSVPGPLKNSSDWKIPQDGDYEFLKSWTVEDLQKRLLALDPMMEQEIEEIRQKYQSKRQPILDAIEAKKRRQQNF
in vitro kinase assay (phosphorylation of GST-FOXO3 peptides): MST1 robustly phosphorylated the P2 fragment
